From patent publication US20260243780A1

Columns and labels:
[1] = biological target: SLC3A2, as used in the SPR measurement; assay: SPR, concentration gradient binding curves
[2] = biological target: transferrin receptor protein 1 (TFRC), as used in the SPR measurement; assay: SPR, concentration gradient binding curves

Cf48 small peptide (C4orf48), as used in the SPR measurement
Kd [1]: 35.2 nM
Kd [2]: 571 nM
